# Assay results published in patent publication US5837813.
# pKd: −log10 of the molar value. Where “and” joins values, the source holds several entries; their conditions need not be identical. Equal values may be shown once.
# Tests used:
# [1] = target: human fibronectin (human) (UniProt P02751); experiment: Scatchard analysis (LIGAND), fibronectin on coated fibronectin
# [2] = target: human fibronectin (human) (UniProt P02751); experiment: Scatchard analysis (LIGAND) of 125I-fibronectin binding to coated fibronectin competed by unlabeled fibronectin
# [3] = target: human fibronectin (human) (UniProt P02751); experiment: Scatchard analysis (LIGAND) of 125I-fibronectin binding to coated fibronectin competed by unlabeled fibronectin; low affinity site
substance,measurement,setting,value
human fibronectin (from UniProt P02751),"binding sites per 1000 fibronectin dimers, high affinity site (sites per 1000 fibronectin dimers)",[1],1 and 2
same,"binding sites per fibronectin dimer, low affinity site (sites per fibronectin dimer)",[1],1 and 2
same,pKd,[2],8.10
same,pKd,[3],6.10
